Columns and labels:
[1] = target: rabbit muscle G-actin (rabbit) (UniProt P68135); assay: ITC; 20°C; TbCof (0.15 mM, syringe) injected into ADP-G-actin (0.015 mM, cell); ADP-G-buffer: 10 mM Tris, 0.2 mM CaCl2, 0.2 mM ADP, 2.0 mM BME, pH 7.4 (low ionic strength); one-site model
[2] = target: rabbit muscle G-actin (rabbit) (UniProt P68135); assay: ITC; 20°C; TbCof (0.28 mM, syringe) injected into ATP-G-actin (0.028 mM, cell); ATP-G-buffer: 10 mM Tris, 0.2 mM CaCl2, 0.2 mM ATP, 2.0 mM BME, pH 7.4 (low ionic strength); one-site model

Q: What does the source list for “ADF/cofilin from Trypanosoma brucei (TbCof), His6 tag cleaved with TEV protease (natural protein)”?
A: Kd [1]: 80 nM; dH [1]: -9.48 kcal/mol; stoichiometry N [1]: 1; Kd [2]: 360 nM; dH [2]: -3.93 kcal/mol; stoichiometry N [2]: 1

From paper PMC3541276
